B1: TPR t1 (parent)
chain: GACCAAUCUGCCCUCAGAGCUCGAGAACAUCUUCGGAUGCAGAGGAGGCAGGCUUCGGUGGCGCGAUAGCGCCAACGUCCUCAACCUCCAAUGCAUCCCACCACAUGAUGAUGCCUGAAGAGCCUUGGUUUUUUG

The series covers variants of B1. Nature of the series: polymerase ribozyme fitness, log enrichment relative to wild type (log ratio); higher = more active; in vitro selection for triplet polymerase activity. Summed up:
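In triplicate, a single round of in vitro selection was run on each mutant library, PCR-built and transcribed, covering one subunit of a heterodimeric triplet polymerase ribozyme. Frozen incubation at −7 °C followed annealing with a biotinylated primer, partner subunit and triplets, and extended constructs were then gel-excised, streptavidin-captured and taken through RT-PCR. Fitness is the logarithm of genotype enrichment over wild-type enrichment, from inverse-variance-weighted replicate averages of Illumina-sequenced inputs and outputs. […] only genotypes with ≥10 input reads and ≥1 read per output were kept.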
Consider U78G C98U, for which the “polymerase ribozyme fitness (log ratio)” value was -0.646.

As for A74C C79A U125A, the “polymerase ribozyme fitness (log ratio)” value was -1.75. As for U78A C115U, the figure is -1.41; as for U78C A95G, -1.08; as for C72U C97U, -1.45. The result for G77A U87A A111U G122U reads -4.12; that for U78C G117U G128C G135C, -6.04. In the case of U78C C82A C85U G93A, the “polymerase ribozyme fitness (log ratio)” value is -1.53.

Take C73G G77U C114U: the “polymerase ribozyme fitness (log ratio)” value is -3.31.

G77U C101G: the “polymerase ribozyme fitness (log ratio)” value was -1.96. On to A75G U129A, for which the “polymerase ribozyme fitness (log ratio)” value was -0.79. As for C72U C88G A90C A91G, the figure is -4.6. As for C73A C89A A118U, the “polymerase ribozyme fitness (log ratio)” value was -1.26.

Consider C72U C79A U106C, for which the “polymerase ribozyme fitness (log ratio)” value was -1.81. The result for C80G G127U reads -6.14; that for A75G C97U U131A, -0.00214. With U78G U116A, the “polymerase ribozyme fitness (log ratio)” value is -3.

Regarding C73U A105C A119U G128A, the “polymerase ribozyme fitness (log ratio)” value was -3.98. As for C76A C89A, the figure is -3.18. As for C73U A121U U133A, the “polymerase ribozyme fitness (log ratio)” value is 2.19. As for C73U U112A, the “polymerase ribozyme fitness (log ratio)” value was 1.41.

Regarding C72U U78G C115U U116C, the “polymerase ribozyme fitness (log ratio)” value was -2.31.

C73A C114G U130A: the “polymerase ribozyme fitness (log ratio)” value is -2.99. Take C72U C89A C104U U125G: the “polymerase ribozyme fitness (log ratio)” value is -1.18.

Consider C73U A100U, for which the “polymerase ribozyme fitness (log ratio)” value is -0.959.

With C73A C88A C89A U112G A119C, the “polymerase ribozyme fitness (log ratio)” value was -2.76. As for C73U C85U U116G, the figure is -3.31.

With A74U U78C G120C, the “polymerase ribozyme fitness (log ratio)” value stood at 0.366. The result for C73U C86U U109C G117A G135U reads -6.47; that for U78C A83C C102U, -1.78; that for U78A G113C, -2.57. The result for C73G C80A reads -4.88; that for C73G A83C C101G C115U U116A, -5.12; that for C72U G77A A111U G113A, -5.99.

For the variant C72U G117A U133A, the “polymerase ribozyme fitness (log ratio)” value was -1.1. For A74U C102U, the “polymerase ribozyme fitness (log ratio)” value was -2.82. As for C73G G113C, the figure is -2.85; as for C79G A83G G117C, -5.42. Take U78C G113A A118G U134G G135U: the “polymerase ribozyme fitness (log ratio)” value is -1.82. As for A74G G120A, the figure is 1.08. As for C80U C94U, the figure is -0.851. Turning to U78C C97A, the “polymerase ribozyme fitness (log ratio)” value was -4.81.

As to C73A C104U, the “polymerase ribozyme fitness (log ratio)” value came to 0.181.

Take G77C U125A: the “polymerase ribozyme fitness (log ratio)” value is -0.685. In the case of C79A C124A, the “polymerase ribozyme fitness (log ratio)” value came to 0.574. As for C76U G127A, the figure is -1.52. For C80U C88G, the “polymerase ribozyme fitness (log ratio)” value is -1.25. On to C73A A108G U116A C123U, for which the “polymerase ribozyme fitness (log ratio)” value was -5.63. The result for G77A C80U C98A C123G reads -4.14; that for G77A C98U U126C U130C, -1.62.

On to C73A C102G, for which the “polymerase ribozyme fitness (log ratio)” value is -5.02.

Consider C73G A100U, for which the “polymerase ribozyme fitness (log ratio)” value is -1.09. The result for C79U A111U U112A C124A reads 1.11; that for C73A U125A, -0.432; that for C79A A91C, -3.69. The result for U78A U96C reads -0.338; that for A74G C80U, -1.69. On to C72U A118U U130C, for which the “polymerase ribozyme fitness (log ratio)” value worked out at 0.16. The result for C73G C101U U112C G117C reads -2.53; that for C72U A121C U134G, 1.71; that for U78C C80U C89U G117C A119G, -1.72. As for C73G U133A, the figure is -1.27; as for C73U C124G, 0.939; as for A74G U112A U126A, 0.303. With U78A A95C G113U U125G, the “polymerase ribozyme fitness (log ratio)” value was -4.39.

Turning to C76A G113C, the “polymerase ribozyme fitness (log ratio)” value is -3.53. As for G77C G110U, the “polymerase ribozyme fitness (log ratio)” value is -1.93.

As for C76A U78A U96A, the “polymerase ribozyme fitness (log ratio)” value was -1.43. Take C76A C82G C88U G110C: the “polymerase ribozyme fitness (log ratio)” value is -5.82.

On to G77C A83C C85U U109C C114G, for which the “polymerase ribozyme fitness (log ratio)” value was -6.69. C73U C104U: the “polymerase ribozyme fitness (log ratio)” value turned out to be 0.0551. With C79U A121C, the “polymerase ribozyme fitness (log ratio)” value was 1.81. As for C79A C115A G127C, the figure is -1.07; as for C73G A105U, -2.27. The result for U78C C102U reads -2.14; that for U78C A111U, -2.5.

For C72U C85U U109A A121G, the “polymerase ribozyme fitness (log ratio)” value is -4.72.

In the case of G77C G122A U130A, the “polymerase ribozyme fitness (log ratio)” value was -1.41. The result for C79G C94A reads -2.62; that for C72U C79G G113C A118U, -5.9; that for C80U C88U A111G C114A, -4.84.

As to U78C C123A, the “polymerase ribozyme fitness (log ratio)” value worked out at 0.196. Turning to C73U A103C, the “polymerase ribozyme fitness (log ratio)” value is -3.82. On to C73G C86A, for which the “polymerase ribozyme fitness (log ratio)” value is -1.38. On to U78A A95G, for which the “polymerase ribozyme fitness (log ratio)” value is -0.764. Consider C79G C94G G113A, for which the “polymerase ribozyme fitness (log ratio)” value was -5.05.

Turning to U78C A84G C97G, the “polymerase ribozyme fitness (log ratio)” value was -5.87. Take G77A U131A: the “polymerase ribozyme fitness (log ratio)” value was 0.113. The result for U78G C102G reads -4.94.

For the variant C76U C104A, the “polymerase ribozyme fitness (log ratio)” value was -1.92. For C73U G117A G120U, the “polymerase ribozyme fitness (log ratio)” value is -2.36. The result for A74G U106A U125A reads -0.353.

For C80A A95U G120A U130G, the “polymerase ribozyme fitness (log ratio)” value is -3.52. On to C73U U78C U96A, for which the “polymerase ribozyme fitness (log ratio)” value is -1.03. As for U78C A84C, the figure is -0.194; as for G77A A84U U112G, -2.45. As for C72U U92C, the figure is -0.581; as for C72U U92A, -3.15.

Consider C80A A121G, for which the “polymerase ribozyme fitness (log ratio)” value is -2.89.

C76A G110A C115A: the “polymerase ribozyme fitness (log ratio)” value was -2.95. C80U A121U: the “polymerase ribozyme fitness (log ratio)” value was 1.34.

With A74G G120U G135C, the “polymerase ribozyme fitness (log ratio)” value stood at 0.597. Regarding C73U A83C, the “polymerase ribozyme fitness (log ratio)” value was -2.2. As for G77A A95G G120A, the figure is 0.0766.

With C72U C86U, the “polymerase ribozyme fitness (log ratio)” value is -0.347. Turning to C76U G135U, the “polymerase ribozyme fitness (log ratio)” value was -1.08.

Turning to C73A C114G, the “polymerase ribozyme fitness (log ratio)” value was -2.17. Take U78A C88G C98U G135A: the “polymerase ribozyme fitness (log ratio)” value was -2.63. As for C79A A83G C115G C123A U131G, the figure is -4.48; as for C79G A121U, 0.316. The result for C73A A103G G110A reads -6.42; that for A74G G113A, -1.8; that for C76G A90C, -0.998. In the case of A74U G120U, the “polymerase ribozyme fitness (log ratio)” value is -0.788. Take G77C C86A G117A: the “polymerase ribozyme fitness (log ratio)” value is -3.88. As for A74G U112G U116A, the “polymerase ribozyme fitness (log ratio)” value was -1.07. Turning to C79U A90G G107U, the “polymerase ribozyme fitness (log ratio)” value is -4.88. As for C73A C101U G122A U131C, the figure is -1.18; as for C72U C104A G120A G122U U131A, -1.54; as for C73A G128U, -2.16. As to C73U G110U G120A, the “polymerase ribozyme fitness (log ratio)” value was -2.15. In the case of C73A G135C, the “polymerase ribozyme fitness (log ratio)” value turned out to be 0.342. Take C72U U78A: the “polymerase ribozyme fitness (log ratio)” value was -1.19. On to C79U C102U G117A, for which the “polymerase ribozyme fitness (log ratio)” value was -3.4. As for C73A C79U C86A C115U, the figure is -3.26; as for G77A U81A G128A, -2.44; as for A75U C76U, -1.57. The result for C73A U87C U96C A111G reads -0.596; that for C76G G77U, 0.0405. In the case of A74U C88G A118U, the “polymerase ribozyme fitness (log ratio)” value is -1.31. As for C72U C73U, the figure is -1.09; as for U78G G120A, 0.634.

With C79U G117C, the “polymerase ribozyme fitness (log ratio)” value was -3.9.

Regarding C73U U92C, the “polymerase ribozyme fitness (log ratio)” value was -1.83.

For the variant U78C C88U C123G U125A, the “polymerase ribozyme fitness (log ratio)” value worked out at 1.82.

For the variant G77C C85A, the “polymerase ribozyme fitness (log ratio)” value is -1.93. Take C79U U129C: the “polymerase ribozyme fitness (log ratio)” value is 0.161. As for C76U A111U, the figure is -3.86; as for G77A A111C A119U C123A U131C, -2.38; as for C76A U78A A118U, 0.066. The result for C73G U116A reads -3.66; that for C80U A84U C89U A119G C123A, 0.318; that for C76U C82U C102U G117A, -4.4. As for C79A C80A C88A, the figure is -5.16. In the case of C73G U130C, the “polymerase ribozyme fitness (log ratio)” value was -0.482.

Take C72U U81G U87A C102A: the “polymerase ribozyme fitness (log ratio)” value was -7.12. As for C73U C82A C124G, the “polymerase ribozyme fitness (log ratio)” value worked out at 1.47. Regarding C79G C102U, the “polymerase ribozyme fitness (log ratio)” value was -4.67. Consider C73A C97U, for which the “polymerase ribozyme fitness (log ratio)” value is -0.11. The result for A74U U78A C85U C114U reads -4.72; that for C73A C88U C114G A118U, -3.36; that for C79U C114A, -0.742. The result for C79A C123U reads 0.304. For the variant C79G A84C, the “polymerase ribozyme fitness (log ratio)” value was -2.61. As for C73A U96C, the figure is 0.0129; as for C72U U106C, -0.313; as for C80G A105C U116A C123G, -7.31. The result for U78C C80U reads -0.608; that for C73U C80U G135C, -0.322; that for C73U A119U U126C, -0.929. Regarding A75G U112A, the “polymerase ribozyme fitness (log ratio)” value came out at 1.59. Consider C73U A95U A111U, for which the “polymerase ribozyme fitness (log ratio)” value was -2.76.

With U78C U112A C114G, the “polymerase ribozyme fitness (log ratio)” value was -0.26. As for C80A G117A, the “polymerase ribozyme fitness (log ratio)” value is -4.27. For C73A G113A, the “polymerase ribozyme fitness (log ratio)” value is -0.815. As for C79A C82U C94A G113A G128U, the figure is -5.6; as for C73G A84U, -1.52.

Values taken from the RNAGym collection of RNA variant scans (doi:10.1073/pnas.2313332121).
